According to publication PMC4176175, “Requirements for 5′dRP/AP lyase activity in Ku”:

Assays:
Test in all cases: EMSA; 1 nM Ku, 1 nM DNA, 15 min; EMSA: 1 nM Ku with 1 nM radiolabeled 30 bp DNA, 15 min, no streptavidin/UDG; buffer, salt, pH and temperature not given in the material
Conditions in all cases: protein: recombinant;recombinant, tags: C-terminal His6;, copies: 1;1, label: 3' 32P-cordycepin on strand 1, 5' overhang 3 nt (GUG) on strand 1, 5' overhang 1 nt (T) on strand 2, paired by the added 3' cordycepin
[1] = biological target: T1, Xenopus Ku70 WT;Xenopus Ku80 WT (Xenopus laevis;Xenopus laevis, UniProt Q9W626;Q6DDS9 1-611;1-726, |)
T1 sequence 1: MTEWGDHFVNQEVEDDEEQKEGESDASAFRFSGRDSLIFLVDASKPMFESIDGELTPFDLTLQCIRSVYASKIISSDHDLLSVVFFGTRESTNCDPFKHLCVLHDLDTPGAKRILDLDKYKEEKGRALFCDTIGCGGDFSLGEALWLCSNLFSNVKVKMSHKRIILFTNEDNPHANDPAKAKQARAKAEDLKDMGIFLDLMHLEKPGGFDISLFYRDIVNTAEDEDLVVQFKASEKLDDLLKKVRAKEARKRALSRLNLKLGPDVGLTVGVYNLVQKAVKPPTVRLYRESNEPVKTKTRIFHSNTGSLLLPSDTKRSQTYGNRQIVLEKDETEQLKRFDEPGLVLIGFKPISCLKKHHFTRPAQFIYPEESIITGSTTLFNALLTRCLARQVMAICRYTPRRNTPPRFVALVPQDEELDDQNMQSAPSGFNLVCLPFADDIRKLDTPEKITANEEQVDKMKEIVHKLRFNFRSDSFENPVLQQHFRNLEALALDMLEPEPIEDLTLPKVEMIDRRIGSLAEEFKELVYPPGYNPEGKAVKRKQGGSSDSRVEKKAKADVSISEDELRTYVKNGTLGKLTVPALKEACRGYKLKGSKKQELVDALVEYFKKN
T1 sequence 2: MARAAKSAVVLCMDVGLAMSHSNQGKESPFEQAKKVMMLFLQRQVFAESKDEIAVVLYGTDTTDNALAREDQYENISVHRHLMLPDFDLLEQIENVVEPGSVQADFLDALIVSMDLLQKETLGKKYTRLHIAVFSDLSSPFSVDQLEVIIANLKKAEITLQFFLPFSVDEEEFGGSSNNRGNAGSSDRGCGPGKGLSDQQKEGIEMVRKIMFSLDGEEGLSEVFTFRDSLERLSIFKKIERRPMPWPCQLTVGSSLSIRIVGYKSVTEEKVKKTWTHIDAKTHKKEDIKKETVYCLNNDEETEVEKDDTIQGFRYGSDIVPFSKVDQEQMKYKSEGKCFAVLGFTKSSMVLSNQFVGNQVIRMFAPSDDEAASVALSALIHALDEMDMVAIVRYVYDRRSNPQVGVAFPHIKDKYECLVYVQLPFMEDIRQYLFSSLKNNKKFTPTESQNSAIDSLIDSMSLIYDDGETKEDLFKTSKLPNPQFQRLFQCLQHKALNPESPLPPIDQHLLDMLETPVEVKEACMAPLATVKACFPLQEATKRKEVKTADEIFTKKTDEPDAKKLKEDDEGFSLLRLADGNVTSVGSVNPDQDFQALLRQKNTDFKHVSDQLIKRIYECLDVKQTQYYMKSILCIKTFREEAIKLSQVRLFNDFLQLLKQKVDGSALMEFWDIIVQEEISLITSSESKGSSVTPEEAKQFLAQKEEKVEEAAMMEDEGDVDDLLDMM

[2] = biological target: T2, yeast Ku70 2A;yeast Ku80 WT (Saccharomyces cerevisiae;Saccharomyces …, UniProt P32807;Q04437 1-602;1-629, K25A;K161A|)
T2 sequence 1: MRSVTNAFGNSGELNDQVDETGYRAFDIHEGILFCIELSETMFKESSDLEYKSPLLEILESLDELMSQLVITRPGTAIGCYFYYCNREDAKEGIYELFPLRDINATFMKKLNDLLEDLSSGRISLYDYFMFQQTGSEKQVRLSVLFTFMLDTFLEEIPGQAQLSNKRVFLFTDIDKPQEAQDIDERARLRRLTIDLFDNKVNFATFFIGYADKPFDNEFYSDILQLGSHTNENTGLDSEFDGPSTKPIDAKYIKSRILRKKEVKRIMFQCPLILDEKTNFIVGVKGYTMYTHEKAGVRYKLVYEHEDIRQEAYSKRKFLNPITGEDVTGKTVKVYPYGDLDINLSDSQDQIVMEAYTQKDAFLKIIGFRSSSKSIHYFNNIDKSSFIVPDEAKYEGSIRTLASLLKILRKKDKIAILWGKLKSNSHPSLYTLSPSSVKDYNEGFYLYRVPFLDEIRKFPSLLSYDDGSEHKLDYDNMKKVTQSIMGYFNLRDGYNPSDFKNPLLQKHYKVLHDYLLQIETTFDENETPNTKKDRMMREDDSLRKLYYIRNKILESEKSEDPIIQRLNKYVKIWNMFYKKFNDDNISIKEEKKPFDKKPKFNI
T2 sequence 2: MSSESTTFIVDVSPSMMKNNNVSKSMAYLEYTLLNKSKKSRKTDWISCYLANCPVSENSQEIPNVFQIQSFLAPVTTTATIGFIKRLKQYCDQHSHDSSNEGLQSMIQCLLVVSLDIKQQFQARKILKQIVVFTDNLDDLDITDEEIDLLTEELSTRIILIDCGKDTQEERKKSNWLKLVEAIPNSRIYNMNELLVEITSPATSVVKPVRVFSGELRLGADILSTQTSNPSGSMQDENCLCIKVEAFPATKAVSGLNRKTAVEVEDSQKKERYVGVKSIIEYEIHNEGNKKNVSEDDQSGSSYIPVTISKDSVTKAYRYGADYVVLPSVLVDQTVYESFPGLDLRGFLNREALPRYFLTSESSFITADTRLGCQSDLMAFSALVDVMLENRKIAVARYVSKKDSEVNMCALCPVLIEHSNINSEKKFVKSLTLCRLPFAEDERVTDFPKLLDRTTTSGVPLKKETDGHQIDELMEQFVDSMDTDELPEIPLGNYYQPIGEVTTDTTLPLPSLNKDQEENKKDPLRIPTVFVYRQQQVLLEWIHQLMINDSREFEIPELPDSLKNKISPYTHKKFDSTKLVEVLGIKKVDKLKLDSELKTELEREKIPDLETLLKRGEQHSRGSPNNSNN

[3] = biological target: T3, yeast Ku70 WT;yeast Ku80 WT (Saccharomyces cerevisiae;Saccharomyces …, UniProt P32807;Q04437 1-602;1-629, |)
T3 sequence 1: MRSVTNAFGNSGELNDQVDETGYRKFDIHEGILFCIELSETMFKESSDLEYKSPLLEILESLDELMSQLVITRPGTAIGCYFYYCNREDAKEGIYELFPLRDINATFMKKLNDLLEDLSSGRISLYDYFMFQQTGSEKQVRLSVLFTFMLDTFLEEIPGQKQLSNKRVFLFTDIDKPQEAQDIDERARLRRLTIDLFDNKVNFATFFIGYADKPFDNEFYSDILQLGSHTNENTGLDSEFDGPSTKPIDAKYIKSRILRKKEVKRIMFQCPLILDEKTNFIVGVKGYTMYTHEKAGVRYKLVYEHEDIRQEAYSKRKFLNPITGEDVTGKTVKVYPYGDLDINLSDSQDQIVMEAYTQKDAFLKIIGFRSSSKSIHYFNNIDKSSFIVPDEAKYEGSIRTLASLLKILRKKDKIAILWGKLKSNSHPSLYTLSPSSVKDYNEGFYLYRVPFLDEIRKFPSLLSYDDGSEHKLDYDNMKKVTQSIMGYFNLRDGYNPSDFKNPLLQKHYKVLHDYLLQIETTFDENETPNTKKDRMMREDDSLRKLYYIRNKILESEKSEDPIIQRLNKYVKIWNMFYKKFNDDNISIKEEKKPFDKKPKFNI
T3 sequence 2: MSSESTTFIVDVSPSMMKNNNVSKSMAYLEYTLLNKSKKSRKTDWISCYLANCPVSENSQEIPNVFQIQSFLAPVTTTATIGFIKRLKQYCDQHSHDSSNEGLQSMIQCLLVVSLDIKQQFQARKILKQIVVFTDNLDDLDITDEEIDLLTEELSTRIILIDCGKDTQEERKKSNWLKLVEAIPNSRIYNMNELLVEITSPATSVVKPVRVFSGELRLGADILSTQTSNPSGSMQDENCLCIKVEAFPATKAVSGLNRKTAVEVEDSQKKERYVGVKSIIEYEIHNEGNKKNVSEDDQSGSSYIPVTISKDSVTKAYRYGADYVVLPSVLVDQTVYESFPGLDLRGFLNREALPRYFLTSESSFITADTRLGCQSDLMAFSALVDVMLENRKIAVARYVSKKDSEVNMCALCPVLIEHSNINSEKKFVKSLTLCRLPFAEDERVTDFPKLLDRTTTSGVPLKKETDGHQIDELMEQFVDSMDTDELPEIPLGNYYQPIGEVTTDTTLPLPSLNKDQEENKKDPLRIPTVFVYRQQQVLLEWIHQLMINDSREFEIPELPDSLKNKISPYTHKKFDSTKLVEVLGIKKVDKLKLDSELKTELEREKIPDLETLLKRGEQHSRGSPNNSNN

Measured: binding result

B1: 30 bp EMSA substrate (dsDNA)
DNA 1: GUGGAAATCAAACGTAAGTAGAATCCAAAGTCT
DNA 2: TAGACTTTGGATTCTACTTACGTTTGATTTC
modifications: deoxyuridine at position 2 of strand 1 (no UDG treatment for EMSA); 5' phosphate on strand 1; 5' biotin-TEG on strand 2
binds: all assays above
